Results published in patent publication US20240262922A1 (Merck KGaA, published 2024).
Read-outs that look alike come from different tables or passages of the source.

T1: AVI-GST-His6-hOX40L (human, UniProt P23510 51-183)
T1 sequence: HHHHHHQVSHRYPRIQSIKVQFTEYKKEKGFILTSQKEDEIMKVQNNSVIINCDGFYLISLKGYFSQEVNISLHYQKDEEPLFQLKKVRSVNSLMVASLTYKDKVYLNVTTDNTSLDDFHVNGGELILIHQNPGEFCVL

T2: recombinant human OX40L protein (R&D Systems, cat. #1054-OX) (human, UniProt P23510 51-183)
T2 sequence: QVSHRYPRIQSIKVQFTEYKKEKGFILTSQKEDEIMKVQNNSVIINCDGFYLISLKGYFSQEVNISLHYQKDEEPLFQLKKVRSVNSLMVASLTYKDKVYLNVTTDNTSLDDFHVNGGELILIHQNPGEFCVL

T3: recombinant cynomolgus monkey OX40L (Novoprotein cat. #CP72) (cynomolgus monkey, UniProt P23510 51-183 (human entry), limits assumed)
T3 construct: Bought protein; also called cynomolgus OX40L
T3 chain: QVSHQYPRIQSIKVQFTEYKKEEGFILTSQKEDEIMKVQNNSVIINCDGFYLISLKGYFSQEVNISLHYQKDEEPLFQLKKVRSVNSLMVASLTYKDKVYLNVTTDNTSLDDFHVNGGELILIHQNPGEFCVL

T4: mouse OX40L (mouse, UniProt P43488 51-198, limits assumed)
T4 sequence: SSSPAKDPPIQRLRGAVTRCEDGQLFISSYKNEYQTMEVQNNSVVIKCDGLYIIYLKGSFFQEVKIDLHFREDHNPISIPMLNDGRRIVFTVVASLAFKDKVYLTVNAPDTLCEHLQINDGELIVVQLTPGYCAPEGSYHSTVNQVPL


Tests used:
[1] = target: T1, AVI-GST-His6-hOX40L; assay: cell-based or functional assay
[2] = target: T1, AVI-GST-His6-hOX40L; assay: cell-based or functional assay; remark: listed apart in the source
[3] = target: T2, recombinant human OX40L protein (R&D …); assay: cell-based or functional assay
[4] = target: T3, recombinant cynomolgus monkey OX40L …; assay: flow cytometry on CHO-S-OX40L cells / ELISA on recombinant OX40L (sentence does not say which)
[5] = target: T4, mouse OX40L; assay: flow cytometry on CHO-S cells / ELISA on recombinant protein (sentence does not say which)
[6] = target: T2, recombinant human OX40L protein (R&D …); assay: SPR steady state, Biacore T200; OX40L immobilised on CM5, antibody in solution
Method: (§1) Recombinant OX40L proteins (human OX40L protein, R&D systems, cat. #1054-OX; cynomolgus monkey OX40L, Novoprotein cat. #CP72) were immobilized onto Biacore CM5 sensor chips and anti-OX40L antibodies were bound to this surface at a range of concentrations. The response at steady state was measured with a Biacore T200 instrument (GE Healthcare) and plotted against the concentration of antibody and fit to a 1:1 binding model. The steady state KD was determined as the antibody concentration at a response equal to half the maximal response (Rₘₐₓ).
Steady state affinity assay was performed as described in section 1.1.7 of Example 1.

[7] = target: T2, recombinant human OX40L protein (R&D …); assay: SPR steady state, Biacore T200; OX40L immobilised on CM5, FcFab in solution
Method: as §1
As with the IgG clones, binding affinity to human OX40L was determined for all twelve FcFabs using steady state affinity assay as described in section 1.1.7 of Example 1. […]

[8] = target: T1, AVI-GST-His6-hOX40L; assay: cell-based or functional assay; remark: listed apart in the source
[9] = target: T1, AVI-GST-His6-hOX40L; assay: cell-based or functional assay; remark: listed apart in the source
[10] = target: T2, recombinant human OX40L protein (R&D …); assay: cell-based or functional assay; remark: listed apart in the source
[11] = target: T2, recombinant human OX40L protein (R&D …); assay: SPR steady state, Biacore T200; OX40L immobilised on CM5, antibody in solution; remark: listed apart in the source
Method: as §1

[12] = target: T2, recombinant human OX40L protein (R&D …); assay: SPR steady state affinity to human OX40L
Method: as §1

[13] = target: T1, AVI-GST-His6-hOX40L; assay: cell-based or functional assay; remark: listed apart in the source
[14] = target: T2, recombinant human OX40L protein (R&D …); assay: cell-based or functional assay; remark: listed apart in the source
[15] = target: T1, AVI-GST-His6-hOX40L; assay: cell-based or functional assay; remark: listed apart in the source

| Binder | IC50 (read off the curve) [1] [nM] | OX40L neutralization/OX40-HEK Reporter IC50 [2] [nM] | Primary T cell activation assay IC50 [3] [nM] | binding result [4] | binding result [5] | Kd [6] [nM] | Kd [7] [nM] | IC50 (read off the curve) [8] [nM] | OX40L neutralization/OX40-HEK Reporter IC50 [9] [nM] | Primary T cell activation assay IC50 [10] [nM] | Kd [11] [nM] | Kd [12] [nM] | OX40L neutralization/OX40-HEK Reporter IC50 [13] [nM] | Primary T cell activation assay IC50 [14] [nM] | IC50 (read off the curve) [15] [nM] |
| --- | --- | --- | --- | --- | --- | --- | --- | --- | --- | --- | --- | --- | --- | --- | --- |
| 97G07 (IgG) (antibody) heavy: not shown light: YYELTQPLSVSVALGQTARIPCGGNNIENKNVHWYQQKPGQAPVLVIYRDSNRPSGIPERFSGSNSGNTATLSINRAQAGDEADYYCQVWDSNTVIFGGGTKVTVLGQPKAAPSVTLFPPSSEELQANKATLVCLISDFYPGAVTVAWKADSSPVKAGVETTTPSKQSNNKYAASSYLSLTPEQWKSHKSYSCQVTHEGSTVEKTVAPTECS | ~9 | 7.5 | 16.7 | binds | no binding | 16.6 |  |  |  |  |  |  |  |  |  |
| 67B06 (IgG) (antibody, also called 67B06 (IgG format)) heavy: not shown light: SYELTQPLSVSVALGQTARMTCGGSDIENKNVHWYQQKPGQAPVLVIHRDNNRPSGIPERFSGSNSGNTATLTISRAQAGDEADYYCQVRDSNIVVFGGGTKLTVLGQPKAAPSVTLFPPSSEELQANKATLVCLISDFYPGAVTVAWKADSSPVKAGVETTTPSKQSNNKYAASSYLSLTPEQWKSHKSYSCQVTHEGSTVEKTVAPTECS | ~5 | 5.2 | 20.9 | binds | no binding | 12.7 |  |  |  |  |  |  |  |  |  |
| 95B06 (IgG) (antibody) heavy: not shown light: DMQMTQSPSSLSASVGDRVTITCRASQGIRNDLDWYQQKPGKVPKRLIHAASSLQSGVPSRFSGSGSGTEFTLTISSLQPEDFVTYYCLQHNTYPWTFGQGTKLEIKRTVAAPSVFIFPPSDEQLKSGTASVVCLLNNFYPREAKVQWKVDNALQSGNSQESVTEQDSKDSTYSLSSTLTLSKADYEKHKVYACEVTHQGLSSPVTKSFNRGEC |  | 3.7 | 7.4 | binds | no binding | 42.4 |  |  |  |  |  |  |  |  |  |
| 97G07 (FcFab) (antibody, IgG1, also called 97G07(2); anti-OX40L FcFab antibody 97G07) heavy: EPKSSDKTHTCPPCPAPPVAGPSVFLFPPKPKDTLMISRTPEVTCVVVDVSHEDPEVKFNWYVDGVEVHNAKTKPREEQYNSTYRVVSVLTVLHQDWLNGKEYKCAVSNKALPSSIEKTISKAKGQPREPQVYTLPPSREEMTKNQVSLTCLVKGFYPSDIAVEWESNGQPENNYKTTPPVLDSDGSFFLYSKLTVDKSRWQQGNVFSCSVMHEALHNHYTQKSLSLSPGAGGGGSGGGGSGGGGSQLQLQESGPGLVKPSETLSLTCTVSGGSISSSSYYWGWIRQPPGKGLEWIGGIGSVDYSGNTYYKPSLKSRVTISVDTSKNQFSLKLSTVTAADTAVYHCARHRGIYFFDYWGQGTLVTVSSASTKGPSVFPLAPSSKSTSGGTAALGCLVKDYFPEPVTVSWNSGALTSGVHTFPAVLQSSGLYSLSSVVTVPSSSLGTQTYICNVNHKPSNTKVDKRVEPKSC light: YYELTQPLSVSVALGQTARIPCGGNNIENKNVHWYQQKPGQAPVLVIYRDSNRPSGIPERFSGSNSGNTATLSINRAQAGDEADYYCQVWDSNTVIFGGGTKVTVLGQPKAAPSVTLFPPSSEELQANKATLVCLISDFYPGAVTVAWKADSSPVKAGVETTTPSKQSNNKYAASSYLSLTPEQWKSHKSYSCQVTHEGSTVEKTVAPTECS |  |  |  |  |  |  | 27.9 | ~6 | 6.2 | 4.6 |  |  |  |  |  |
| 67B06 (FcFab) (antibody) heavy: EPKSSDKTHTCPPCPAPPVAGPSVFLFPPKPKDTLMISRTPEVTCVVVDVSHEDPEVKFNWYVDGVEVHNAKTKPREEQYNSTYRVVSVLTVLHQDWLNGKEYKCAVSNKALPSSIEKTISKAKGQPREPQVYTLPPSREEMTKNQVSLTCLVKGFYPSDIAVEWESNGQPENNYKTTPPVLDSDGSFFLYSKLTVDKSRWQQGNVFSCSVMHEALHNHYTQKSLSLSPGAGGGGSGGGGSGGGGSQLQLQESGPGLVKPSETLSLTCSVSGGSISTSSYYWGWIRQPPGKGLEWSGSIYYSGSTYYRPSLQGRATISVDTSKNQFSLKLTSVTAADTAVYYCARHRGSYFFDIWGLGTLVTVSSASTKGPSVFPLAPSSKSTSGGTAALGCLVKDYFPEPVTVSWNSGALTSGVHTFPAVLQSSGLYSLSSVVTVPSSSLGTQTYICNVNHKPSNTKVDKRVEPKSC light: SYELTQPLSVSVALGQTARMTCGGSDIENKNVHWYQQKPGQAPVLVIHRDNNRPSGIPERFSGSNSGNTATLTISRAQAGDEADYYCQVRDSNIVVFGGGTKLTVLGQPKAAPSVTLFPPSSEELQANKATLVCLISDFYPGAVTVAWKADSSPVKAGVETTTPSKQSNNKYAASSYLSLTPEQWKSHKSYSCQVTHEGSTVEKTVAPTECS |  |  |  |  |  |  | 20.3 | ~6 | 5.5 | 7.2 |  |  |  |  |  |
| Ref1_Anti-OX40L (US Pat. No. 9,139,653) (antibody, V domains shown) VH: EVQLVESGGGLVQPGGSLRLSCAASGFTFSNYAMNWVRQAPGKGLEWVSTISGSGGATRYADSVKGRFTISRDNSRNTVYLQMNSLRVEDTAVFYCTKDRLIMATVRGPYYYGMDVWGQGTTVTVSS VL: DIQMTQSPSSLSASVGDRVTITCRASQSISSYLNWYQQKPGKAPNLLIYAASSLQSGVPSRFSGSGSETDFTLTISSLQPEDFATYYCQQSHSVSFTFGPGTKVDIK |  |  |  |  |  |  |  |  |  |  | 31.9 | 31.9 | 7.3 | 5.7 | ~5 |
| Ref2_Anti_OX40L (antibody, human IgG1, kappa, V domains shown) VH: EVQLLESGGGLVQPGGSLRLSCAASGFTFNSYAMSWVRQAPGKGLEWVSIISGSGGFTYYADSVKGRFTISRDNSRTTLYLQMNSLRAEDTAVYYCAKDRLVAPGTFDYWGQGALVTVSS VL: DIQMTQSPSSLSASVGDRVTITCRASQGISSWLAWYQQKPEKAPKSLIYAASSLQSGVPSRFSGSGSGTDFTLTISSLQPEDFATYYCQQYNSYPYTFGQGTKLEIKR | ~3 |  |  |  |  |  |  | ~6 |  |  | 15 | 15 | 6.6 | 9.3 | ~4 |
